The nature of this data set: yeast display, Sf9 membrane polyspecificity reagent, FACS + sequencing; frameworks hold sequencing errors. Summed up: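 Nanobodies from a synthetic yeast display library (Saccharomyces cerevisiae BJ5465), induced 36–48 hours with galactose, were stained 1 hour at 4 °C with 10% biotinylated, detergent-solubilized Sf9 membrane reagent, enriched on streptavidin microbeads, then FACS-sorted. Anti-HA (expression) and streptavidin (reagent binding) fluorescence set low and high (top ~1%) gates. Polyreactivity labels come from the gate of origin. Genes were colony-PCR amplified, MiSeq 2 × 250 sequenced and filtered by CDR length.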
As for “QVQLVESGGGLVQAGGSHRLSCSASGRIFGLYAMGWYRQAPGKERELVAAITSSTGSTYYADSVKGRFTISRDNAKNTVYLQMNSLKPEDTAVYYCAADLYSPSIYGYIYYTWLDYWGQGTQVTVSS”, the “polyreactivity (PSR sort gate)” value is reported as “high polyreactivity”.

Consider “QVQLVESGGGLVQAGGSHRLSSAASARTFQDNPMGWYRQAPGKERELVAAISWRGGSTNYADSVKGRFTITRDNAKNTVYLQMNSLKPEDTAVYYCTRDRRKYGKLDYWGQGTQVTVSS”, for which the “polyreactivity (PSR sort gate)” value was “low polyreactivity”.

As for “QVQLVESGGGLVQAGGSHSLSCAASGSTFKHYAMGWYRQAPGKERELVAAISWGGVNTDYADSVKGRFTISRDNAKNTVYLQMNSLNPEDTAVYYCAAGRWSVGTYDYWGQGTQVTVSS”, the “polyreactivity (PSR sort gate)” value is “low polyreactivity”.

Consider “QVQLVESGGGLVQAGGSIPLSCAASGIIFYYNTMGWYRQAPGKERELVATSTASDGSTYADSVKGRFTISSDNAKNTVYLQMNRLKPEDTAVYYCNADTRTQGPFSAPYYREMNYWGQGSQVTVSS”, for which the “polyreactivity (PSR sort gate)” value is on record as “low polyreactivity”.

For the sequence “QVQLVESGGGLVQAGGSIRLSCAASGFIFYVYAMGRSRQAPGKERELVAAISGGGDSTYYADSVKGRFTTSRDNAKNTVYLQMNSLKPEDTAVYYCATRRYPEVVNGESGYWGQGTQVTVSS”, the “polyreactivity (PSR sort gate)” value is “low polyreactivity”.

Regarding “QVQLVESGGGLVQAGGSIRLSCAASGFTITHYAMGWYRQAPGKERELVAAISASGGSTYYADSVKGRFTISRDNAKYTVYVQMNSLKPEDTAVYYCAATWDYRRGRYPYDYWGQGTQVTVSS”, the “polyreactivity (PSR sort gate)” value is “high polyreactivity”.

Consider “QVQLVESGGGLVQAGGSIRLSCAASGGTFGYYVMGWYRQAPRKERELVAAITSGGSTKYADSVKGRFTISRDNAKNTVYLQMNSLKPEDTAVYYCAADVTRREPYQSYDYWGQGTQVTVSS”, for which the “polyreactivity (PSR sort gate)” value was “low polyreactivity”.

“QVQLVESGGGLVQAGGSIRLSCAASGNTFRWYAMGWYRQAPGKEREFVAAISSSGGSTYYADSVKGRFTISRDNAKNTVYLQMNSLKPEDTAVYYCNAASVTRHVSFATDYEYWGQGTQVTVSS”: the “polyreactivity (PSR sort gate)” value was “high polyreactivity”.

Consider “QVQLVESGGGLVQAGGSIRLSCAASGNTFVLYTMGWYRQAPGKERELVAAISGRGTNTYYADSVKGRFTISRDNAKNTVYLQMNSLKPEDTAVYYCAARYKTLVTDYEYWGQGTQVTVSS”, for which the “polyreactivity (PSR sort gate)” value was “high polyreactivity”.

In the case of “QVQLVESGGGLVQAGGSIRLSCAASGRIFKAYAMGWYRQAPGKERELVAAITRGGRTKYADSVKGRFTLSRDNAKNTVYLQMNSLKPEYTAVYYCNPPRGVLYDYWGHGTQVTVSS”, the “polyreactivity (PSR sort gate)” value is “high polyreactivity”.

As for “QVQLVESGGGLVQAGGSIRLSCAASGRIFRYNAMGWYRQAPGKERELVAAISGSGDRTYYADSVKGRFTISRDTAKNTVYLQMNSLKPEDTAVYDCAADVVWRQYGSWFYYWGQGTQVTVSS”, the “polyreactivity (PSR sort gate)” value was “high polyreactivity”.

For the sequence “QVQLVESGGGLVQAGGSIRLSCAASGRILYYYVMGWYRQAPGKERELVAAITRGGSTDYADSVKGRFTISRDNAKNTVYLQMNSLKPEDTAVFYCAVPSWPFWVRVEGDYWGQGTQVSVSS”, the “polyreactivity (PSR sort gate)” value was “low polyreactivity”.

Consider “QVQLVESGGGLVQAGGSIRLSCAASGRTFDPYSRGWYRQAPGKERELVAAISRSGGSTYYADSVKGRFTISRDNAKNTVYLQLNSLKPEDTAVYYFDADASRYYYEYDYWGQGTQVNVSS”, for which the “polyreactivity (PSR sort gate)” value is “high polyreactivity”.

Consider “QVQLVESGGGLVQAGGSIRLSCAASGRTFPVNAMGWYRQAPGKERELVAAITTNGGRTYYADSVKGRFTISRDNEKNTVYLQMNSLKPEDTAVYYCATGAYTDKRYGYWGQGTQVTVSS”, for which the “polyreactivity (PSR sort gate)” value was “high polyreactivity”.

With “QVQLVESGGGLVQAGGSIRLSCAASGSIFAPYAMGSYRQATGKVREFVAAISWSGGGTYYADSVQGRFTISRDNAKNTVNLQMNSLKPEDTAVYYCAAYRNKESIFRTILDYWGQGTQVTVSS”, the “polyreactivity (PSR sort gate)” value is “low polyreactivity”.

As to “QVQLVESGGGLVQAGGSIRLSCAASGSIFVDNARGWYRPAPGKERELVAAIRSRDTSTYYADSVKGRFTISRDNAKHTVYLQMNSLKPEDTAVYYCAARTSKRVSQYNYWGQGTQVTVSS”, the “polyreactivity (PSR sort gate)” value is “high polyreactivity”.

For “QVQLVESGGGLVQAGGSIRLSCAASGSTYGTNTMGWSRQAPGKERELVAGITSGGNTNYADSVKGRFTISRDNAKNTVYLQMNSLKPEDSAVYYCAPRYIYYYAYGYNYWGQGTHVTVSS”, the “polyreactivity (PSR sort gate)” value is on record as “high polyreactivity”.

Take “QVQLVESGGGLVQAGGSIRLSCAASGTIFRSYAMGWYRQAPGKERELVAAITSSSGSTYYADSVKGRFTISRDNAKNTVYLQMNSLKPEDTAGYYFNAPYWKSRFRAYYHWGQGTQVTVSS”: the “polyreactivity (PSR sort gate)” value is recorded as “high polyreactivity”.

“QVQLVESGGGLVQAGGSIRLTCAASGRIFYLNAMGWYRQAPGKEREMGAAITWSGGRTYYADSVKGRFTISRDNAKNTVYLQMNSLKPEDTAVYYCAAVPRPGPNTVLTPYGYWGQGTQVTVSS”: the “polyreactivity (PSR sort gate)” value is “high polyreactivity”.

As to “QVQLVESGGGLVQAGGSIRSSCAASGRTFGSNAMGWSRQAPGKERELVAAISSTVSTNYADSVKGRFTISRDNAKNTVYLQMNSLKPEDTAVYYCNVTRHYSYVSEYDYWGQGTQVTVSS”, the “polyreactivity (PSR sort gate)” value is reported as “low polyreactivity”.

In the case of “QVQLVESGGGLVQAGGSLCLSCAGSGIFVYKAMGRYRQAPGKEREFVAAINKSGASTFYADSVKGRFTISRDNAKKTVYLQMNSLKPEDTAVYYCAKVPHVYRHYYYWGQGTQVTVSS”, the “polyreactivity (PSR sort gate)” value is reported as “low polyreactivity”.

Turning to “QVQLVESGGGLVQAGGSLGLSCAASGFTFHKYAMGWYRQAPGKERELVAAITSSGGSTYYADSVKGRFTISRDNAKNTVYLQMNSLKPEDTAVYYCAVGFYYFSSWYSYDYWGQGTQVTVSS”, the “polyreactivity (PSR sort gate)” value is listed as “high polyreactivity”.

On to “QVQLVESGGGLVQAGGSLGLSCAASGRSFYFYAMGWYRQAPGKERELVAALSRGGGTNYADSVKGRFTLSRDNATNTVYLQMNSLKPEDTAVYDCAARPGPYWTVTFRSPKYYYWGQGTQVTVSS”, for which the “polyreactivity (PSR sort gate)” value is on record as “high polyreactivity”.

On to “QVQLVESGGGLVQAGGSLGLSCAASGSNFHSYAMGWYRQAPGKERELVGAISWCGGSTNYSDSVKGRFTISRDNAKNTVYLQMNSLKPEDTAVYYCAAKEFGSDEYKTGSGYDYWGQCTQVTVSS”, for which the “polyreactivity (PSR sort gate)” value was “low polyreactivity”.

For “QVQLVESGGGLVQAGGSLGLSCAASGSTFQFYAMGWNRQAPGKERELVAAISWSSGSTYYADSVKGRFTISRDNAKNSVYLQMNSLKPEHTAVYYCNARYPWSYRYWDGGYWGQGTQVTVSS”, the “polyreactivity (PSR sort gate)” value is reported as “low polyreactivity”.

For the sequence “QVQLVESGGGLVQAGGSLLISCAASGSIFTCYAMGWYRQAPGKERELVAASTRGGSTYADSEKGRFTISRDNAKNTVYLQRKSLIPDVTGVYYCNAVYGVYDFKYWGQGTQVSVSS”, the “polyreactivity (PSR sort gate)” value is recorded as “low polyreactivity”.

For “QVQLVESGGGLVQAGGSLLLSCAASAFTSDVYAMGWYRQAPGKETELVADISARGGSTYYADSVKGRFTISRDNAKNTVYLQMNSLKPEDTAVYYCAAEVYVGTIGFYADFFYYPVYYWVQGTQVTVSS”, the “polyreactivity (PSR sort gate)” value is given as “low polyreactivity”.

For the sequence “QVQLVESGGGLVQAGGSLLLSCAASGFIFDYNAMGGYRPAPGKETELVAAISRSGGSTYADSVKGRFTFSRDNAMNTVYLQMNSLKPEDTAVYYCAADILSRSRSRRVDYWGQGTQVTVSS”, the “polyreactivity (PSR sort gate)” value is “low polyreactivity”.

On to “QVQLVESGGGLVQAGGSLLLSCAASGFTFSGYVMGWYRQAPGKERELVAAISNSGGRTYADSVKGRFTISRDNAKNTVYLQMNSLKPEDTAVYYCAKKPGGFSQASRVDYDYWGQGTQVTVSS”, for which the “polyreactivity (PSR sort gate)” value is “low polyreactivity”.

“QVQLVESGGGLVQAGGSLLLSCAASGFTFWNYAMGWYRQAPGKEMEFVASITWSGGSTYYADSVKGRFTISSDNAKNTVYLQMNSLKPEDTAVYYCAVGGSGYGLYGVGYALDYWGQGTQVTVSS”: the “polyreactivity (PSR sort gate)” value is listed as “high polyreactivity”.

As for “QVQLVESGGGLVQAGGSLLLSCAASGFTFYGYVMGWYRQAPGKERELVAGITWRGGSTYYADSVKGRFTISRDNAKNTVYLQMNSLKPEDTAVYYCAAKSFRRGTFDYWGQGTQVTVSS”, the “polyreactivity (PSR sort gate)” value is “high polyreactivity”.

For “QVQLVESGGGLVQAGGSLLLSCAASGGTIRYYAMGWSRQSPGKERELVAAISRGGTNTYYADSVKGRFTISRDNAKNTVYLQRNSLKPDDTAVYYCSAKRYSRYNYWGQGTQVTVSS”, the “polyreactivity (PSR sort gate)” value is on record as “high polyreactivity”.

In the case of “QVQLVESGGGLVQAGGSLLLSCAASGIIFGTNAMGWYRQAPGKERELVAGITSSGDSTYYADSVKGRFTISRDNAKNTVYLQMNSLKPEDTAVYYCAREIRTREFDSWGQGTQVTVSS”, the “polyreactivity (PSR sort gate)” value was “low polyreactivity”.

As for “QVQLVESGGGLVQAGGSLLLSCAASGIIFTRYVMGWYRQAPGKERELVATIRIGGSTTYADSVKGRFTISRDNAKITVYLQMYSLKPEDTAVYYCAADTWYITTYGGAGSYAYGFYYWGQGTQVTVSS”, the “polyreactivity (PSR sort gate)” value is recorded as “low polyreactivity”.

Regarding “QVQLVESGGGLVQAGGSLLLSCAASGITFKWNDMGWYRQAPGKEREFVAAITGSTGSTFYADSVKGRFTISRDNAKNSVYLQMNSLNTEDTAVYYCAAGPWFYYWGQGTQVTVSS”, the “polyreactivity (PSR sort gate)” value was “low polyreactivity”.

In the case of “QVQLVESGGGLVQAGGSLLLSCAASGRILWRYAMGWYRQARGKERELVAGITYSGGRTYYADSVKVRFTISRDNAKNTVYLQMNSLKPEDTAVYYCNADYADSPYFYLLLDYWGQGTQVTVSS”, the “polyreactivity (PSR sort gate)” value is “low polyreactivity”.

As for “QVQLVESGGGLVQAGGSLLLSCAASGSIYSYYAMGWYRQAPGKERELVAAISQSGGTTYYADSVKGRFTISRDNAKNTVYLQMNSLKPEDTAVYYCAARATSSFDTQYYYWGQGTQVTVSS”, the “polyreactivity (PSR sort gate)” value is recorded as “low polyreactivity”.

On to “QVQLVESGGGLVQAGGSLLLSCAASGSTFAPYAMAWYRQAPRKERELVATISASGGTTYYADSVKGRFTISRDNAKNTVYLQMNSLKPEDTAVYYCAKRRVWWPAHRSYLYASEFGYWGQGTQVTVSS”, for which the “polyreactivity (PSR sort gate)” value was “low polyreactivity”.

Regarding “QVQLVESGGGLVQAGGSLLLSCAASGSTFRYYAMGWYRPAPGKERELVAATTSGGSTYYADSVKGRFTISRDNAKNTVYLQMNSLKPEDTAVYYCAKSISRYFFYRPSAAAYGYDYWGQGTQVTVSS”, the “polyreactivity (PSR sort gate)” value was “high polyreactivity”.

“QVQLVESGGGLVQAGGSLLLSCAASGSTFSYYAMGWYRPAPGKERELVATITKRGGSTYYADSVKGRFTISRDNAKNTFYVQLNSLKPEDTAVYDCAASYPSRWRATYPTGFEYWGQGTQVTVSS”: the “polyreactivity (PSR sort gate)” value is “high polyreactivity”.

These data come from the nanobody polyreactivity screen of Harvey et al. (2022).
